Results taken from the RNAGym collection of RNA variant scans (doi:10.1073/pnas.2313332121).
Fewer inactive variants are shown than the library holds.

B1: TPR 5TU (parent)
chain: GGAUCUUCUCGAUCUAACAAAAAAGACAAAUCUGCCACAAAGCUUGAGAGCAUCUUCGGAUGCAGAGGCGGCAGCCUUCGGUGGCGCGAUAGCGCCAACGUUCUCAACUAUGACACGCAAAACGCGUGCUCCGUUGAAUGGAGUUUAUCAUG

Variants of: B1
Experiment: polymerase ribozyme fitness, log enrichment relative to wild type (log ratio); higher = more active; in vitro selection for triplet polymerase activity
In short: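 Mutant libraries of each subunit of a heterodimeric triplet polymerase ribozyme were built by PCR and transcribed. Each library went through one round of in vitro selection in triplicate: annealing with biotinylated primer, partner subunit and triplets, frozen incubation at −7 °C, gel excision of extended constructs, streptavidin-bead capture and RT-PCR. Input and output libraries were Illumina-sequenced; only genotypes with ≥10 input reads and ≥1 read per output were kept. Fitness is log2(genotype enrichment/wild-type enrichment), using inverse-variance-weighted replicate averages.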

Variant | polymerase ribozyme fitness (log ratio)
U13A U45A U56A G74A | ≤ -4.2
C18U A21C G42C C93U | ≤ -4.2
U6G A17U A60G C93A A98U | -1.75
A16U A41U G59A C116G C129U A150G | ≤ -4.2
A22U C85U | -0.371
G50A C96G C129U | -3.02
C27A A119U G133C A137G G140U U144G | ≤ -4.2
A39G A91G | -3.4
A30U A52G G67U C132U | ≤ -4.2
A37G A41C U53C C85U U104C G128C C149G | ≤ -4.2
C76G C93U | ≤ -4.2
G94C U127C | -2.45
C35U A52G | -0.53
G143C U146A | -3.65
A19C A20G G136A A147G | -2.36
C35G U55A G58A G86U A147U | -4.06
A20G C96U | -0.654
C51A C85A | -2.75
A29U G59U C93U | ≤ -4.2
U7G C75G G84A G141A | ≤ -4.2
A19G A41C | -1.52

Variant | polymerase ribozyme fitness (log ratio)
U45A G46C A98U | ≤ -4.2
C5G A23C G68C G81C G83C U101G C118U G141U | ≤ -4.2
U55G A98G | -0.84
C35A C76U | -3.95
A40C C51U G84A | -0.15
U6C A22U A26U G84A U144A | -4.15
C5A U55G G68C | ≤ -4.2
A3C C57U C93A | -1.56
C103A | -1.23
G46C C76U U102C C116U A137C | ≤ -4.2
G58C G68A | -3.97
A73C G141A | -3.8
G80A A91C A120G | ≤ -4.2
C10G G84A | -3.26
A26G G42C C95U A150U | ≤ -4.2
A49C C51U C95U C96A G112A G126A | ≤ -4.2
U13C G58A | 0.452
A3C U6G A22C A29C C85G C93U C108G G143A | ≤ -4.2
A3U C10U C54A U55A | -1.97
A20C A41U G68C G83A G100U A115G C116U C123G | ≤ -4.2
A121G G141U C149U | -3.72

Variant | polymerase ribozyme fitness (log ratio)
U55G G62A | -2.48
U13G A39C G62A A107U U139A A142U | ≤ -4.2
U55G G59C G86A C103U U146C | -2.47
A26G A60G | -3.55
U56A A113U | -1.87
C35G U82A G94U G126A A138U | ≤ -4.2
U7A A28U G67C C87U C96G C123A | ≤ -4.2
A138C U144G | -3.7
A66G C69U | ≤ -4.2
C5A C36U C79U A121G | ≤ -4.2
A91U U127G | ≤ -4.2
G58C A106C | 0.355
G62C G141C | -0.741
C51G G94C C149U | -3.9
A40G C93U C99U | -4.16
G59A A122U | 0.148
A20G A47G | -0.368
A16U A20U G58C G86A | -3.79
A23C A26U U53A C85A G136U | ≤ -4.2
A19C C43U C76A G81C A91G A106U A121C G136U A142G | ≤ -4.2
U4C A12U A21G G59A C85G G124U | -2.83

Variant | polymerase ribozyme fitness (log ratio)
U6A C96U | -0.0433
A20U U33C G71A U104A A106G A107G A137C | ≤ -4.2
U44G G70C G83A C116A G152A | ≤ -4.2
A91U U111C | ≤ -4.2
G59U C93A | -3.58
U53G C69A C99U C118A | ≤ -4.2
A12U C87U A120U | -0.814
U53A U61A C85U A97U C108U | ≤ -4.2
G59C G83A C103U A122G | -0.809
C87A A119U A147C | -4.05
A89U C96U A138G U146G | ≤ -4.2
G25C A41C A47C G83U A89U A121C C125G A142C C149G A150U G152A | ≤ -4.2
A28U C87A C131G | ≤ -4.2
A19U C36U G86C C93U G100A G126C | ≤ -4.2
A30G C79U G124U U135A | ≤ -4.2
C43A G94C G143U | ≤ -4.2
A26U C87U | -1.74
C54G G83U G141U | -1.56
C5U C38G A66U G94C | ≤ -4.2
G59U A106G C114U | -1.65
U15C G84A A106G G124A | -0.149
